Measured values published in the supplement of paper PMC7125110.
± gives the standard error. For part of these data: This sample holds only a part of the variants without activity.

B1: glmS ribozyme (parent)
chain: AUAAAAGCGCCAGAACUACAGAAAUGUAGUUGACGAGGAGGAGGUUUAUCGAAUUUUCGGCGGAUGCCUCCAAA

Columns and labels:
Conditions in all cases: with glucosamine-6-phosphate
glucosamine-6-phosphate [1] = variants of: B1; assay: kcat; higher = faster cleavage; RNA array
In short: (§1)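 The measurements used barcoded ribozyme variants on sequenced MiSeq chips, transcribed in situ by E. coli RNA polymerase and tracked at 37 °C with a hybridised Cy3 probe. Glucosamine-6-phosphate, 40 μM to 10 mM in HEPES/KCl/Mg(OAc)2 buffer, was flowed in while tiles were imaged over ~14 h. Baseline-normalised signals, also normalised to non-cleaving reference variants, gave per-tile medians that were fit to one- or two-exponential decays for kobs. kcat and KM resulted from weighted Michaelis–Menten fits across concentrations.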

glucosamine-6-phosphate [2] = variants of: B1; assay: self-cleavage kobs at 2500 uM GlcN6P; higher = faster cleavage; RNA array
In short: as §1

glucosamine-6-phosphate [3] = variants of: B1; assay: self-cleavage kobs at 10000 uM GlcN6P; higher = faster cleavage; RNA array
In short: as §1

glucosamine-6-phosphate [4] = variants of: B1; assay: KM; higher = weaker cofactor use; RNA array
In short: as §1

glucosamine-6-phosphate [5] = variants of: B1; assay: self-cleavage kobs at 40 uM GlcN6P; higher = faster cleavage; RNA array
In short: as §1

glucosamine-6-phosphate [6] = variants of: B1; assay: self-cleavage kobs at 160 uM GlcN6P; higher = faster cleavage; RNA array
In short: as §1

glucosamine-6-phosphate [7] = variants of: B1; assay: self-cleavage kobs at 640 uM GlcN6P; higher = faster cleavage; RNA array
In short: as §1

Row | Variant | kcat (glucosamine-6-phosphate [1]) | self-cleavage kobs at 2500 uM GlcN6P (glucosamine-6-phosphate [2]) | self-cleavage kobs at 10000 uM GlcN6P (glucosamine-6-phosphate [3]) | KM (glucosamine-6-phosphate [4]) | self-cleavage kobs at 40 uM GlcN6P (glucosamine-6-phosphate [5]) | self-cleavage kobs at 160 uM GlcN6P (glucosamine-6-phosphate [6]) | self-cleavage kobs at 640 uM GlcN6P (glucosamine-6-phosphate [7])
1 | U55A G59A | 6.57e-05 ± 1.4e-05 s⁻¹ | 5.76e-05 ± 1.7e-05 s⁻¹ | 5.69e-05 ± 1.3e-05 s⁻¹ |  |  |  | 
2 | U55G U65A | 0.00461 ± 0.00094 s⁻¹ | 0.00174 ± 0.00025 s⁻¹ | 0.00388 ± 0.00043 s⁻¹ | 3100 ± 880 µM | 6.02e-05 ± 7.6e-06 s⁻¹ | 0.000296 ± 4.5e-05 s⁻¹ | 0.000695 ± 0.00011 s⁻¹
3 | U55G U65G | 0.00419 ± 0.00048 s⁻¹ | 0.00164 ± 0.00022 s⁻¹ | 0.0033 ± 0.00045 s⁻¹ | 3440 ± 580 µM | 5.26e-05 ± 1.1e-05 s⁻¹ | 0.00022 ± 6.1e-05 s⁻¹ | 0.000628 ± 0.0001 s⁻¹
4 | U55G G66A | 0.0134 ± 0.004 s⁻¹ | 0.00661 ± 0.0022 s⁻¹ | 0.0124 ± 0.002 s⁻¹ | 1790 ± 770 µM | 0.000461 ± 7.7e-05 s⁻¹ | 0.000877 ± 0.00021 s⁻¹ | 0.00303 ± 0.00072 s⁻¹
5 | U56C G60A | 1.14e-05 ± 1.1e-07 s⁻¹ |  |  | 1070 ± 61 µM |  |  | 
6 | U57G C68A | 2.56e-05 ± 8.2e-06 s⁻¹ |  |  |  |  |  | 3.37e-05 ± 1.4e-05 s⁻¹
7 | U56C A64U | < 1e-05 s⁻¹ |  |  |  | < 1e-05 s⁻¹ |  | < 1e-05 s⁻¹
8 | U57A C68G | 3.34e-05 ± 1.3e-05 s⁻¹ | 4.55e-05 ± 1.7e-05 s⁻¹ |  |  |  |  | 6.21e-05 ± 1.7e-05 s⁻¹
9 | C58A U65G | 5.13e-05 ± 1.3e-05 s⁻¹ | 4.93e-05 ± 1.3e-05 s⁻¹ | 4.32e-05 ± 1.3e-05 s⁻¹ |  |  |  | 
10 | G59A A64G | 9.06e-05 ± 1.3e-05 s⁻¹ | 6.66e-05 ± 2.7e-05 s⁻¹ | 7.67e-05 ± 1.6e-05 s⁻¹ |  | < 1e-05 s⁻¹ |  | 
11 | C58U C70A | 2.29e-05 ± 6.9e-06 s⁻¹ |  |  |  |  |  | 3.84e-05 ± 1.4e-05 s⁻¹
12 | G59C C67A | < 1e-05 s⁻¹ |  | < 1e-05 s⁻¹ |  | < 1e-05 s⁻¹ |  | 
13 | U55C C70U | 0.00171 ± 0.00048 s⁻¹ | 0.000413 ± 8.4e-05 s⁻¹ | 0.00111 ± 0.00012 s⁻¹ | 5960 ± 3000 µM | 2.44e-05 ± 9e-06 s⁻¹ | 7.16e-05 ± 3e-05 s⁻¹ | 0.000172 ± 4.7e-05 s⁻¹
14 | U55C C70A | 1.26e-05 ± 1.6e-06 s⁻¹ |  |  |  | < 1e-05 s⁻¹ |  | 
15 | U55G A64U | 0.000152 ± 1.9e-05 s⁻¹ | 6.75e-05 ± 8.7e-06 s⁻¹ | 0.00011 ± 1.4e-05 s⁻¹ | 3480 ± 950 µM |  |  | 
16 | U54A C70U | 0.00432 ± 0.00063 s⁻¹ | 0.00404 ± 0.0014 s⁻¹ |  | 78.3 ± 20 µM | 0.00148 ± 0.00013 s⁻¹ | 0.00258 ± 0.00056 s⁻¹ | 0.00479 ± 0.0013 s⁻¹
17 | U54C U69A | 0.000112 ± 7.5e-06 s⁻¹ | 0.000123 ± 3.1e-05 s⁻¹ | 0.000105 ± 2e-05 s⁻¹ | 82 ± 22 µM | 3.96e-05 ± 1.5e-05 s⁻¹ | 6.58e-05 ± 2.2e-05 s⁻¹ | 0.000111 ± 3.8e-05 s⁻¹
